A short description of data set [1]: Travelling wave ion mobility CCS calibration: drift times and TWCCSN2 of calibrant protein ions. In kind it is physicochemical. The following applies: drift gas nitrogen, repeat determinations printed as separate rows; for dt exp.: in ms; for TWCCSN2: in Å2. An excerpt:
Supplement 41598_2025_28101_MOESM1_ESM.docx, table 25: Table S18: Drift times, experimentally determined CCS, and literature references of calibrant proteins. | column: CCS determinations ^a); CCS from literature ^a)

The conditions of data set [2]: drift gas nitrogen, in Å2, cited from earlier work. An excerpt: Supplement 41598_2025_28101_MOESM1_ESM.docx, table 25: Table S18: Drift times, experimentally determined CCS, and literature references of calibrant proteins. | column: CCS from literature ^a)

Like-named read-outs stand apart in the source and are kept apart here.

ubiquitin had a dt exp. in data set [1] (calibrant ion z = 4) of 11.75. The TWCCSN2 in data set [1] (calibrant ion z = 4) stood at 956. The “CCS from literature, CCS exp.” value in data set [2] (calibrant ion z = 4) was 949; in data set [2] (calibrant ion z = 5) it was 1011.

serum albumin: the dt exp. in data set [1] (calibrant ion z = 15) is 18.80. The substance further yielded a TWCCSN2 in data set [1] (calibrant ion z = 15) of 4310. Further, the “CCS from literature, CCS exp.” value is 4490 in data set [2] (calibrant ion z = 15), 4470 in data set [2] (calibrant ion z = 16) and 4490 in data set [2] (calibrant ion z = 17).
